# Assay results reported in article PMC9717613 (Nature catalysis, 2022).
# Molecular target: the molecule itself
# Experiment: crystal structure
protein,measurement,value
"HsKYNase_66-Ct6XHis (HsKYNase_66 with a C-terminal 6X-Histidine Tag) (enzyme, human, PLP cofactor bound as internal aldimine) MEPSSLELPADTVQRIAAELKCHPTDERVALHLDEEDKLRHFRECFYIPKIQDLPPVDLSLVNKDEDAIYFNGNSLGLQPKMVKTYLEEELDKWAKIAIYGWFEGDSPWIHYDESIVGLMKDIVGANEKEIVLMNTLTVNLHLLMLSFFKPTPKRYKILLEAKAFPSDHYAIESQLQLHGLNIEESMRIIKPREGEETLRIEDILEVIEKEGDSIAVILFSGIHYYTGQHFNIPAITKAGQAKGCYVGFDLAHAVGNVELYLHDWGVDFACWCGYKYLNSSPGGIAGAFIHEKHAHTIKPALVGWFGHELSTRFKMDNKLQLIPGVCGFRCSTPPILLVCILHASLEIFKQATMKALRKKSVLLTGYLEYLIKHNYGKDKAATKKPVVNIITPSHVEERGCQLTLTFNVPNKDVFQELEKRGVVCDKRNPNGIRVAPVPLYNSFHDVYKFTNLLTSILDSAETKN",stoichiometry N,2
